According to the RNAGym collection of RNA variant scans (doi:10.1073/pnas.2313332121):

B1: TPR t1 (parent)
chain: GACCAAUCUGCCCUCAGAGCUCGAGAACAUCUUCGGAUGCAGAGGAGGCAGGCUUCGGUGGCGCGAUAGCGCCAACGUCCUCAACCUCCAAUGCAUCCCACCACAUGAUGAUGCCUGAAGAGCCUUGGUUUUUUG

Variants of: B1
Test: polymerase ribozyme fitness, log enrichment relative to wild type (log ratio); higher = more active; in vitro selection for triplet polymerase activity
Method in brief: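 After PCR construction and transcription, each subunit's mutant library from a heterodimeric triplet polymerase ribozyme was annealed with a biotinylated primer, the partner subunit and triplets. Incubation was frozen, at −7 °C, and extended constructs were gel-excised, bound to streptavidin beads and amplified by RT-PCR, in one selection round done in triplicate. Fitness is the logarithm of a genotype's enrichment divided by that of the wild type, from inverse-variance-weighted replicate averages of Illumina-sequenced inputs and outputs. The base of the logarithm is 2, and genotypes needed ≥10 input reads and ≥1 read per output.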

Variant | polymerase ribozyme fitness (log ratio)
GACCAAUCUGCCCUCAGAGCUCGAGAACAUCUUCGGAUGCAGAGGAGGCGGGCUUCGGUGGCGCGAUAGCGCCAACGUCCUCAACCUCGAAUGCAUCCCACCACAUGAUGAUGCCUGAAGAGCCUUGGUUUUUUG | -1.08
GACCAAUCUGCCCUCAGAGCUCGAGAACAUCUUCGGAUGCAGAGGAGGCGGGCUUCGGUGGCGCGAUAGCGCCAACGCCCUCAACCUCCAAUGCAUCCCACCACAUGAUGAUGCCUGAAGAGCCUUGGUUUUUUG | 0.0914
GACCAAUCUGCCCUCAGAGCUCGAGAACAUCUUCGGAUGCAGAGGAGGCGGGCUUCGGUCGCGCGAUAGCGCCAACGUCCUCAACCUCCAAUGUAUCCCACCACAUGAUGAUGCCUGAAGAGCCUUGGUUUUUUG | -4.35
GACCAAUCUGCCCUCAGAGCUCGAGAACAUCUUCGGAUGCAGAGGAGGCUGGAAUCGGUGGCGCGAUAGCGCCAACGUCCUCAACCUCCAAUUCAUCCCACCACUUGAUGAUGCCUGAAGAGCCUUGGUUUUUUG | -3.45
GACCAAUCUGCCCUCAGAGCUCGAGAACAUCUUCGGAUGCAGAGGAGGCGGGCUUCGGUGGCGCGAUAGCGCCAACGUCCUCAACCUCCAAUGCAUCCCACCACAUGAUGAUGCCUGAAGAGCCUUGCUUUUUUG | -1.8
GACCAAUCUGCCCUCAGAGCUCGAGAACAUCUUCGGAUGCAGAGGAGGCGGGCUUCGGUGGCGCGAUAGCGCCAACAUCCUCAACCUCCAAUGCAUCCCACCACAUGAUGAUGCCUGAAGAGCCUUGGUUUUUUG | -0.057
GACCAAUCUGCCCUCAGAGCUCGAGAACAUCUUCGGAUGCAGAGGAGGCGGGCUUCGGUGGCUCGAUAGCGCCAACGUCCUCAACCUCCAAUGCAUCCCACCACAUGAUGAUGCCUGAAGAGCCUUGGUUUUUUG | -1.73
GACCAAUCUGCCCUCAGAGCUCGAGAACAUCUUCGGAUGCAGAGGAGGCGGGCUGCGGUGGCGCGAUAGCGCCAACGUCCUCAACCUCCAAUGCAUCCCACCACAUGAUCAUGCCUGAAGAGCCUUGGUUUUUUG | -4.52
GACCAAUCUGCCCUCAGAGCUCGAGAACAUCUUCGGAUGCAGAGGAGGCGGGCUUCCGUGUCGCGAUAGCGCCAACGUCCUCAACCUGCAAUGCAUCCCACCACAUGAUGAUGCCUGAAGAGCCUUGGUUUUUUG | -3.3
GACCAAUCUGCCCUCAGAGCUCGAGAACAUCUUCGGAUGCAGAGGAGGCGGGCUUCGGUGGCGCGAUAGCGCCAACGUCCUCAACCUCCAAUGCAUCCCAUCACAUGAUGAUGCCUGAAGAGCCUUGGUUUUUUG | -0.187
GACCAAUCUGCCCUCAGAGCUCGAGAACAUCUUCGGAUGCAGAGGAGGCUGGCUUCGGUGGCGCGAUAGCGCCCACGUCCUCAGCCUCCAAUGCAUCCCACCACAUGAUGAAGCCUGAAGAGCCUUGGUUUUUUG | -4.89
GACCAAUCUGCCCUCAGAGCUCGAGAACAUCUUCGGAUGCAGAGGAGGCUGGCUUUGGUGGCGCGAUAGCCCCAACGUCCUCAACCUCCAAUGCAUCCCACCACAUGAUGAUGCCUGAAGAGACUUGGUUUUUUG | -6.51
GACCAAUCUGCCCUCAGAGCUCGAGAACAUCUUCGGAUGCAGAGGAGGCUGGCUUCGGUGGUGCGAUAGCGCCAACGUCCUCAACCUCCAAUGCAUCCCACCACAUGAUGAUGCCUGAAGAGCCUUGGUUUUUUG | -1.15
GACCAAUCUGCCCUCAGAGCUCGAGAACAUCUUCGGAUGCAGAGGAGGCUGGCUUCGGUGGGGCGAUAGCGCCAACGUCCUCAACCUCCAAUGCAUCCCACCACAUGAUGAUGCCUGAAGAGCCUUGGUUUUUUG | -3.56
GACCAAUCUGCCCUCAGAGCUCGAGAACAUCUUCGGAUGCAGAGGAGGCGGGCUUCGGUGGCGCGAUAGCGCCAAUGUCCUCAACCUCCAAUGCAUCCCACCACAUGAUGAUGCCUGAAGAGCCUUGGUUUUUUG | -0.383
GACCAAUCUGCCCUCAGAGCUCGAGAACAUCUUCGGAUGCAGAGGAGGCGGGCUUCGGUCGCGCGAUAGCGCCAACGUCCUCAACCUCCAAUGUAUCCCACCACAUGAUGAUGCCUGAAGAGCCUUGGGUUUUUG | -3.05
GACCAAUCUGCCCUCAGAGCUCGAGAACAUCUUCGGAUGCAGAGGAGGCGGGCUUCGGUGGCACGAUAGCGCCAACGUCCUCAACCUCCAAUGCAUCCCACCACAUGAUGAAGCCUGAAGAACCUUGGUUUUUUG | -1.39
GACCAAUCUGCCCUCAGAGCUCGAGAACAUCUUCGGAUGCAGAGGAGGCUGGCUUCGGUGGGGCGAUAGCGCCAACGUCCUCAACGUCCAAUGCAUCCCACCACUUGUUGAUGCCUGAAGAGCGUUGGUUUUUUG | -7.62
GACCAAUCUGCCCUCAGAGCUCGAGAACAUCUUCGGAUGCAGAGGAGGCGGGCUUCGGUGGCGCGAUAGCCCCAACGUCCUCAACCUCCAAUGCAUCCCACCACAUGAUGAUUCCUGAAGAGCCUAGGUUUUUUG | -6
GACCAAUCUGCCCUCAGAGCUCGAGAACAUCUUCGGAUGCAGAGGAGGCUGGCUUCGGUGGCGCGAUAGCGCCAACGUCCUCCACCUCGAAUGCAUCCCACCACAUGAUGAUGCCUGAAGAGCCUUGGUUUUUUG | -5.74
GACCAAUCUGCCCUCAGAGCUCGAGAACAUCUUCGGAUGCAGAGGAGGCGGGCUUCGGUGGCGCGAUAACGCCAACGUCCUCAACCUCCCAUGCAUCCCACCACAUGAUGAUGCCUGAAGAGCCUUGGUUUUUUG | -6.86

Variant | polymerase ribozyme fitness (log ratio)
GACCAAUCUGCCCUCAGAGCUCGAGAACAUCUUCGGAUGCAGAGGAGGCUGGCUUCGGUGGGGCGAUAGCGCCAACGUCCUCAACCUCCAAUGCAUCCCACCACAUGAUGAGGCCUGAAGAGCCUUGGUUUUUUG | -5.81
GACCAAUCUGCCCUCAGAGCUCGAGAACAUCUUCGGAUGCAGAGGAGGCGGGCUUCGGUGGCGCGAUAGCGCCAACGUCCUCAACCUCCAAUGCAUCCUACCACAUGAUGAUGCUUCAAGAGCCUUGGUUUUUUG | -6.47
GACCAAUCUGCCCUCAGAGCUCGAGAACAUCUUCGGAUGCAGAGGAGGCGGGCUUCAGUGGCGCGAUAGCGUCAACGUCCUCAACCUCCAAUGCACCCCACCACAUGAUGAUGUCUGAAGAGCCUUGGUUUUUUG | -4.36
GACCAAUCUGCCCUCAGAGCUCGAGAACAUCUUCGGAUGCAGAGGAGGCUGGCUUUGGUGGCGCGAUAGCGCGAACGUCCUCAACCUUCAAUGCAUCCCACCACAUGAUGAUGCCUGAAGAGCCUUGGUUUUUUG | -3.49
GACCAAUCUGCCCUCAGAGCUCGAGAACAUCUUCGGAUGCAGAGGAGGCGGGCUUCGGUGGCGCGAUAGCGCCAACGUCCUCAACCUCCAAUGCAUCCCACCACAUGAUGAUUCCUGAAGAGCCUUGGUUUUUUG | -2.68
GACCAAUCUGCCCUCAGAGCUCGAGAACAUCUUCGGAUGCAGAGGAGGCGGGCUUCGGUGGCGCGAUAGCGCCAACGUCCUCAACCUCCAAUGCAUCCCACCACAUGAUGAUCCCUGAAGAGCCUUGGUUUUUUG | -1.84
GACCAAUCUGCCCUCAGAGCUCGAGAACAUCUUCGGAUGCAGAGGAGGCUGGCUUCGGUGGCGCGAUAGCGCCAACGUCCUCUACCUCCAAUGCAUCCCACCACAUGAUGAUGCCUGAAGAGCCUUGGUUUUAUG | -0.994
GACCAAUCUGCCCUCAGAGCUCGAGAACAUCUUCGGAUGCAGAGGAGGCUGGCUUGGGUGGCGCGAUAGCGCCAACGUCCUCAACCUCCAAUGCAUCCCACCACAUGAUGAUGCCUGAAGAGCCUUGGUUUUUUG | -1.76
GACCAAUCUGCCCUCAGAGCUCGAGAACAUCUUCGGAUGCAGAGGAGGCGGGCUUCGGUGGCGCGAUAGCGCCAACGUCCUCAACCUCCAAUGCAUCCCACCAAAUGAUGAUGCCUGAAGAGCCUUGGUUUUUUG | -1.49
GACCAAUCUGCCCUCAGAGCUCGAGAACAUCUUCGGAUGCAGAGGAGGCGGGCUUCGGUGGCGCGAUAGCGCCAACGUCCUCAACCUCCAAUGCAUCCCACCAUAUGAUGAUGCCUGAAGAGCCUUGGUUUUUUG | -0.208
GACCAAUCUGCCCUCAGAGCUCGAGAACAUCUUCGGAUGCAGAGGAGGCUGGCUUUGGUGGCGCGAUAGCGCUAACGUCCUCCACCUCCAAUGCAUCCCACCACAUGAUGAUGCCUGAAGAGCCUUGGUUUUUUG | -1.69
GACCAAUCUGCCCUCAGAGCUCGAGAACAUCUUCGGAUGCAGAGGAGGCGGGCUUCGGUGCCGCGAUAGCGCCAACGUCCUCAACCUCCAAUGCAUCCCACCACAUGAUGAUGCCUGAAGAGCCUUGGUUUUUUG | -3.07
GACCAAUCUGCCCUCAGAGCUCGAGAACAUCUUCGGAUGCAGAGGAGGCGGGCUUCGGUGGCGCGAUAUCGCCAACGUCCUCAACCUCCAAUGCAUCCCACCACAUGAUGAUGCCUGAAGAGCCUUGGUUUUUUG | 0.675
GACCAAUCUGCCCUCAGAGCUCGAGAACAUCUUCGGAUGCAGAGGAGGCGGGCUUCGGUGGCGCGAUAGCGCCAACGUCCUCAACCUCCAAUGCAUCCCACCACAUGAUGAUGCCUGAAGAGCCUUGGUCUUUUG | 0.163
GACCAAUCUGCCCUCAGAGCUCGAGAACAUCUUCGGAUGCAGAGGAGGCGGGCUUCGGUGGCGCGAUAGCGCCAACGUCCUCAACCUCCAAUGCAUCCCACCACAUGAUGAUGCCUGAAGAGCCUUGGUGUUUUG | -0.32
GACCAAUCUGCCCUCAGAGCUCGAGAACAUCUUCGGAUGCAGAGGAGGCUGGCUUAGGUGGCGCGUUAUCGCCAACGUCGUCAACCUCCAAUGCAUCCCACCAGAUGAUGAUGCGUGAAGAGUCUUGGUCUUUUG | -8.27
GACCAAUCUGCCCUCAGAGCUCGAGAACAUCUUCGGAUGCAGAGGAGGCGGGCUUCGGUGGCGCGAUAGCGCCAACGUCCUUAACCUCCAAUGCAUCCCACCACAUGAUGAUGCCUGAAGAGCCUUGGUUUUUUG | 0.198
GACCAAUCUGCCCUCAGAGCUCGAGAACAUCUUCGGAUGCAGAGGAGGCUGGCUUCGGUGGAGCGAUAGCGCCAACGUCCUAAACCUCCAAUGCAUCCCACCACAUGAUGAUGCCUGAAGAGCCUUGGUUUUUUG | -1.33
GACCAAUCUGCCCUCAGAGCUCGAGAACAUCUUCGGAUGCAGAGGAGGCGGGCUUCGGUGGCGCGAUAGCGCCAACGUCCUCAACCUCCAAUGCAUCCCACCACAUGAUGAUGCCUGAAGAGUCUUGGUUUUUUG | 1.02
GACCAAUCUGCCCUCAGAGCUCGAGAACAUCUUCGGAUGCAGAGGAGGCUGGCUUCGGUGGCGCGAUAGCGCCAACGUCCUCAACCUCCAAUGCAUCCCACCACAUGAUGAUGCCUGCAGGGCCUUGGAUUUUUG | -1.76
GACCAAUCUGCCCUCAGAGCUCGAGAACAUCUUCGGAUGCAGAGGAGGCUGGCUUCGGUGGCGCGAUAGCGCCAACGUCCUCGACCUCCAAUGCAUCCCACCACAUGAUGAUGCCUGAAGAGCCUUGGUUUUUUG | -0.122
